From patent US20060099643A1, “Method for determining the regulation of xenobiotic removal” (priority 2002, published 2006) come the findings set out here.

In data set [1] the target is T1, ER-α (UniProt P03372 297-554, limits assumed).
T1 construct: also called estrogen receptor alpha
T1 sequence (looked up): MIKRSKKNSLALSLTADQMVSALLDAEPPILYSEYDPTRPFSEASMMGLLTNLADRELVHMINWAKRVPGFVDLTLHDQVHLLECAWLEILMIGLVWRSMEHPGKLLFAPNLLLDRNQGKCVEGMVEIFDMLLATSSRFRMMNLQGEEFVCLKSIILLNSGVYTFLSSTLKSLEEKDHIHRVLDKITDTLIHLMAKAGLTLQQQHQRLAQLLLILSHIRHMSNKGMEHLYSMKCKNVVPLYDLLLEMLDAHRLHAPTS
In words: Thermofluor thermal shift; ER-α 8 µM with estradiol 20 µM; SRC-3 11 µM.

In data set [2] the target is T1, ER-α. Put plainly: Thermofluor thermal shift; ER-α 8 µM with tamoxifen 20 µM; SRC-3 11 µM. In general terms: DSF heats the sample and reads unfolding from a dye or from intrinsic fluorescence.
Data set [3] addresses T1, ER-α. Put plainly: Thermofluor thermal shift; ER-α 8 µM with 2-methoxy-E2 20 µM; SRC-3 11 µM.
Data set [4] deals with T2, ER-β (UniProt Q92731 256-505, limits assumed).
T2 construct: also called estrogen receptor beta
In words: Thermofluor thermal shift; ER-β 8 µM with estrone 20 µM; SRC-3 11 µM.

For data set [5], the target named is T2, ER-β. In words: Thermofluor thermal shift; ER-β 8 µM, no ligand; SRC-3 11 µM.
For data set [6], the target named is T2, ER-β. Put plainly: Thermofluor thermal shift; ER-β 8 µM with estradiol 20 µM; SRC-3 11 µM.
Data set [7] concerns the target T1, ER-α. Put plainly: Thermofluor thermal shift; ER-α 8 µM with ICI-182780 20 µM; SRC-3 11 µM.
For data set [8], the target named is T1, ER-α. In words: Thermofluor thermal shift; ER-α 8 µM, no ligand; SRC-3 11 µM.
The target in data set [9] is T2, ER-β. In words: Thermofluor thermal shift; ER-β 8 µM with 2-methoxy-E2 20 µM; SRC-3 11 µM.
Data set [10] deals with T1, ER-α. In words: Thermofluor thermal shift; ER-α 8 µM with estrone 20 µM; SRC-3 11 µM.
In data set [11] the target is T2, ER-β. Put plainly: Thermofluor thermal shift; ER-β 8 µM with tamoxifen 20 µM; SRC-3 11 µM.
Data set [12] deals with T1, ER-α. In words: Thermofluor thermal shift; ER-α 8 µM with 17-α-ethylene-E2 20 µM; SRC-3 11 µM.
Data set [13] has as its target T2, ER-β. Put plainly: Thermofluor thermal shift; ER-β 8 µM with ICI-182780 20 µM; SRC-3 11 µM.
Data set [14] deals with T2, ER-β. Put plainly: Thermofluor thermal shift; ER-β 8 µM with 17-α-ethylene-E2 20 µM; SRC-3 11 µM.
The target in data set [15] is T2, ER-β. In words: Thermofluor thermal shift; ER-β 8 µM with 4-OH-tamoxifen 20 µM; SRC-3 11 µM.
For data set [16], the target named is T1, ER-α. Put plainly: Thermofluor thermal shift; ER-α 8 µM with 4-OH-tamoxifen 20 µM; SRC-3 11 µM.
Data set [17] deals with T2, ER-β. In words: Thermofluor thermal shift; ER-β 8 µM with estrone 20 µM; peptide 100 µM.
Procedure: (§1) A 2 μM ligand solution at 2 times the final concentration was dispensed with a micropipette into a 384 well black wall Greiner plate. Then, 2 μL of the protein dye solution was dispensed on top of the ligand solution in the 384 well plate. The plates were spun to ensure mixing of the protein-dye and ligand solutions followed by layering of 1 μL of silicone oil to prevent evaporation during heating of the samples.
Data set [18] concerns the target T3, SXR (UniProt O75469 130-434, limits assumed).
T3 construct: also called steroid and xenobiotic receptor; steroid X receptor
T3 sequence (looked up): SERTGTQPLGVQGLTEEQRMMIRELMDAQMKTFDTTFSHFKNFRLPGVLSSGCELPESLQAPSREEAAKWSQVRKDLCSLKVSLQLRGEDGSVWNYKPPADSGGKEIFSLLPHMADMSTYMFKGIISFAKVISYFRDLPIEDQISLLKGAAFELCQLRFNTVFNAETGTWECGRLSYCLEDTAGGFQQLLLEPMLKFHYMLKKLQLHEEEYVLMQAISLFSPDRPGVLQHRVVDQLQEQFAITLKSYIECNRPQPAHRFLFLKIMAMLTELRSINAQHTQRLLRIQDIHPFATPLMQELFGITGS
In words: Thermofluor thermal shift; SXR 6 µM with lovastatin 50 µM; peptide 100 µM.
Procedure: (§2) A 2 μL ligand solution at 2 times the final concentration was dispensed with a micropipette into a 384 well black wall Greiner plate. Then, 2 μL of the protein dye solution was dispensed on top of the ligand solution in the 384 well plate. The plates were spun to ensure mixing of the protein-dye and ligand solutions followed by layering of 1 μL of silicone oil to prevent evaporation during heating of the samples.

The target in data set [19] is T3, SXR. In words: Thermofluor thermal shift; SXR 6 µM with clofibrate 50 µM; peptide 100 µM.
Procedure: as §2
The target in data set [20] is T1, ER-α. Put plainly: Thermofluor thermal shift; ER-α 8 µM with 2-methoxy-E2 20 µM; peptide 100 µM.
Procedure: as §1
The target in data set [21] is T1, ER-α. Put plainly: Thermofluor thermal shift; ER-α 8 µM with 4-OH-tamoxifen 20 µM; peptide 100 µM.
Procedure: as §1
The target in data set [22] is T2, ER-β. In words: Thermofluor thermal shift; ER-β 8 µM with estradiol 20 µM; peptide 100 µM.
Procedure: as §1
The target in data set [23] is T2, ER-β. Put plainly: Thermofluor thermal shift; ER-β 8 µM, no ligand; peptide 100 µM.
Procedure: as §1
Data set [24] deals with T1, ER-α. Put plainly: Thermofluor thermal shift; ER-α 8 µM with estradiol 20 µM; peptide 100 µM.
Procedure: as §1
The target of data set [25] is T3, SXR. In words: Thermofluor thermal shift; SXR 6 µM, ligand free; peptide 100 µM.
Procedure: as §2
Data set [26] deals with T3, SXR. In words: Thermofluor thermal shift; SXR 6 µM with 17-α-hydroxyprogesterone 50 µM; peptide 100 µM.
Procedure: as §2
The target in data set [27] is T2, ER-β. Put plainly: Thermofluor thermal shift; ER-β 8 µM with 2-methoxy-E2 20 µM; peptide 100 µM.
Procedure: as §1
Data set [28] has as its target T3, SXR. In words: Thermofluor thermal shift; SXR 6 µM with cortisone 50 µM; peptide 100 µM.
Procedure: as §2
The target of data set [29] is T3, SXR. In words: Thermofluor thermal shift; SXR 6 µM with hydrocortisone 50 µM; peptide 100 µM.
Procedure: as §2
For data set [30], the target named is T2, ER-β. Put plainly: Thermofluor thermal shift; ER-β 8 µM with ICI-182780 20 µM; peptide 100 µM.
Procedure: as §1
The target of data set [31] is T3, SXR. In words: Thermofluor thermal shift; SXR 6 µM with corticosterone 50 µM; peptide 100 µM.
Procedure: as §2
The target of data set [32] is T2, ER-β. In words: Thermofluor thermal shift; ER-β 8 µM with 4-OH-tamoxifen 20 µM; peptide 100 µM.
Procedure: as §1
Data set [33] has as its target T3, SXR. In words: Thermofluor thermal shift; SXR 6 µM with taxol 50 µM; peptide 100 µM.
Procedure: as §2
In data set [34] the target is T3, SXR. In words: Thermofluor thermal shift; SXR 6 µM with 11-α-hydroxy-progesterone 50 µM; peptide 100 µM.
Procedure: as §2
The target in data set [35] is T3, SXR. In words: Thermofluor thermal shift; SXR 6 µM with 4-androstene 50 µM; peptide 100 µM.
Procedure: as §2
The target of data set [36] is T1, ER-α. In words: Thermofluor thermal shift; ER-α 8 µM with estrone 20 µM; peptide 100 µM.
Procedure: as §1
Data set [37] concerns the target T3, SXR. In words: Thermofluor thermal shift; SXR 6 µM with lithocholic acid 50 µM; peptide 100 µM.
Procedure: as §2
Data set [38] has as its target T1, ER-α. Put plainly: Thermofluor thermal shift; ER-α 8 µM with 17-α-ethylene-E2 20 µM; peptide 100 µM.
Procedure: as §1
The target in data set [39] is T1, ER-α. Put plainly: Thermofluor thermal shift; ER-α 8 µM, no ligand; peptide 100 µM.
Procedure: as §1
In data set [40] the target is T2, ER-β. Put plainly: Thermofluor thermal shift; ER-β 8 µM with tamoxifen 20 µM; peptide 100 µM.
Procedure: as §1
The target in data set [41] is T3, SXR. In words: Thermofluor thermal shift; SXR 6 µM with estradiol 50 µM; peptide 100 µM.
Procedure: as §2
Data set [42] addresses T1, ER-α. Put plainly: Thermofluor thermal shift; ER-α 8 µM with tamoxifen 20 µM; peptide 100 µM.
Procedure: as §1
The target in data set [43] is T3, SXR. Put plainly: Thermofluor thermal shift; SXR 6 µM with androsterone 50 µM; peptide 100 µM.
Procedure: as §2
In data set [44] the target is T2, ER-β. In words: Thermofluor thermal shift; ER-β 8 µM with 17-α-ethylene-E2 20 µM; peptide 100 µM.
Procedure: as §1
Data set [45] concerns the target T1, ER-α. In words: Thermofluor thermal shift; ER-α 8 µM with ICI-182780 20 µM; peptide 100 µM.
Procedure: as §1

T2 sequence (Q92731 256-505 limits assumed): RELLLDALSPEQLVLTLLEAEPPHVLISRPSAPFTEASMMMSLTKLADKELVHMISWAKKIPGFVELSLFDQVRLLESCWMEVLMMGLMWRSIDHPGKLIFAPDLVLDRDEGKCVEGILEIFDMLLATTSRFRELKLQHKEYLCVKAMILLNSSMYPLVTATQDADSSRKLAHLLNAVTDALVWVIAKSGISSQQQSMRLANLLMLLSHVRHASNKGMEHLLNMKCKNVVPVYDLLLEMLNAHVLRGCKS

Regarding “co-activator protein SRC-3 (from UniProt Q9Y6Q9 627-829)”, the change in Tm stabilization from the receptor-ligand ΔTm worked out at 3.8 °C with ER-α [1]; 1.1 °C with ER-α [2]; 5.3 with ER-α [3]; 1.6 °C in the data set with ER-β [4]; 0.9 with ER-β [5]; 1.7 in the data set with ER-β [6]. Also, the change in Tm stabilization from the receptor-ligand ΔTm with ER-α [7] came out at 0.5 °C; with ER-α [8], 1.5; with ER-β [9], 2.5 °C; with ER-α [10], 3.5 °C; with ER-β [11], 1.3; with ER-α [12], 4.5 °C. Further, the change in Tm stabilization from the receptor-ligand ΔTm with ER-β [13] amounted to 0.9 °C; in the data set with ER-β [14], 2.6; with ER-β [15] it was 1.2 °C; in the data set with ER-α [16], 0.2.

B1: co-activator peptide SRC1-NR2 (peptide, UniProt Q15788 683-701, looked up)
peptide: LTERHKILHRLLQEGSPSD
notes: Peptide fragment of SRC-1
In the case of B1, the “change in Tm stabilization from the receptor-ligand ΔTm” value (shortened to “change … from the receptor-ligand ΔTm”) with ER-β [17] came to 3.8; with ER-α [20], 5.5; with ER-α [21] it was 0.2; with ER-β [22], 3.4; with ER-β [23], 0.7; with ER-α [24], 4.9. Also, the “change … from the receptor-ligand ΔTm” value is 4.4 with ER-β [27]; 0.4 with ER-β [30]; 0.2 with ER-β [32]; 3 in the data set with ER-α [36]; 4.5 in the data set with ER-α [38]; 0.8 with ER-α [39]. The “change … from the receptor-ligand ΔTm” value is 0.2 in the data set with ER-β [40], -0.5 with ER-α [42], 2.6 with ER-β [44] and 0.2 with ER-α [45]. The ΔΔTm was determined as 3 with SXR [18]; 3.3 in the data set with SXR [19]; 2.9 with SXR [25]; 3.3 in the data set with SXR [26]; 2.9 with SXR [28]; 3.3 with SXR [29]. For the same molecule, the ΔΔTm with SXR [31] is 2.7; with SXR [33], 2.5; with SXR [34], 4.6; with SXR [35], 2.9; with SXR [37], 2.9; with SXR [41], 3.9. Besides, the ΔΔTm with SXR [43] was determined as 3.5.
